Test results: the supplement of paper PMC10567573

B1: FBXO3 (parent)
chain: GGFPIIRDQIFRYVHDPECVATTG
B2: SOAT1 (parent)
chain: KSAAMLAVFAVSAVVHEYALAVCL

Variants of: B1
Test: protein stability index of a GFP-peptide fusion (GPS, HEK-293T) (PSI 1-6); higher = more stable
Conditions: c terminus: a fixed tail appended
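Further: lentivirally expressed fusions sorted by FACS into six bins by GFP to DsRed ratio, PSI derived from sequencing read proportions per bin multiplied by bin number.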

Protein stability index, by site and new letter:
G2: P 2.38 | S 1.76 | M 1.68 | D 3.02 | L 1.86 | W 2.87 | H 1.76 | T 2.19 | A 1.82 | K 2.54 | N 2.28
H15: F 1.85 | S 1.5 | K 2.05 | V 2.58 | D 2.41 | E 2.85 | G 1.78 | A 1.95 | I 1.62 | M 1.49 | Y 1.74 | N 1.84 | C 1.97 | Q 2.02
E18: S 1.57 | W 1.38 | N 1.8 | F 1.88 | R 1.69 | Q 1.28 | D 1.68 | Y 2.52 | C 2.04 | P 2.1 | T 1.98 | A 2.61 | H 1.99
F11: G 3.48 | C 2.92 | A 3.59 | R 2.89 | L 3.02 | E 3.58 | I 2.45 | V 3.18 | T 3.35 | Y 2.76 | Q 3.1 | H 4.01
I10: W 1.74 | G 2.04 | H 3.27 | E 3.66 | Y 2.57 | S 3.22 | T 2.54 | R 2.17
Q9: F 2.43 | L 2.08 | W 2.29 | S 1.8 | H 1.64 | G 1.75 | R 2.18 | E 2.09 | P 2.65 | K 1.75
Y13: V 2.8 | I 2.39 | P 3.84 | G 3.18 | S 3.62 | W 2.18 | T 3.34 | R 3.22
V20: Q 2.04 | Y 1.9 | T 1.68 | S 2.32 | N 2.49 | L 1.81 | E 2.22 | F 1.8 | W 1.78
G24: W 1.61 | K 1.96 | T 2.49 | A 1.83 | M 1.33 | C 1.7 | S 1.81 | V 1.69 | D 2.22 | R 2.22 | N 2.31 | Q 2.78
F3: A 3.13 | L 1.94 | E 2.9 | D 3.2 | R 2.59 | K 2.87 | S 2.59 | T 3.17
A21: F 1.64 | W 1.7 | E 1.55 | Y 2.49 | D 1.06 | P 1.86 | N 1.5 | H 2.77 | G 2 | C 1.39 | Q 2.05
P17: M 2.1 | L 1.81 | Y 1.64 | F 2.01 | T 2.42 | H 1.83 | C 1.83 | R 1.49
G1: Q 2.15 | I 2.05 | T 2.74 | Y 1.55 | A 2.29 | E 2.6 | K 2.15 | D 2.65
T22: F 1.67 | C 1.72 | P 2.23 | Y 1.88 | I 2.26 | R 2.56 | Q 1.76 | N 2.61 | L 1.83 | W 1.84 | G 1.66 | M 1.53 | D 2.25
C19: L 1.72 | M 2.31 | K 1.78 | P 1.94 | Y 1.81 | A 1.6 | V 2.08 | T 2.09 | E 2.47 | S 1.9 | F 1.57
I6: L 2.16 | E 3.52 | R 2.13 | V 1.61 | Q 2.69 | C 1.96 | G 2.23 | H 2.32 | K 2.52
R12: T 2.21 | H 2.69 | W 1.58 | L 1.64 | M 1.35 | D 3.21 | A 2.3 | V 1.22 | P 2.82 | S 2.89 | C 1.75 | G 3.12 | F 1.92 | E 3.39
V14: D 3.78 | W 1.94 | I 2.57 | C 1.93 | L 2.28 | N 2.92 | T 2.5
I5: D 2.61 | Q 1.59 | H 2.14 | W 1.53 | E 2.64 | P 1.85 | C 1.86 | F 1.58 | A 2.39 | S 2.23 | K 1.19
D8: K 2.39 | R 3.49 | E 1.52 | T 1.24 | N 1.54 | V 2.54 | S 1.61
R7: P 2.47 | F 1.67 | A 3.41 | V 1.73 | G 2.99 | S 2.45 | E 3.79 | D 3.92 | Q 3.09 | T 2.72
T23: N 2.13 | V 1.61 | Q 1.96 | S 1.59 | I 1.89 | F 2.25 | C 1.91 | R 1.64 | L 1.57
D16: K 2.3 | H 1.46 | I 2.06 | C 1.94 | R 1.5 | M 1.88 | E 2.56 | S 2.2 | L 1.75 | F 1.4 | V 2.05
P4: D 2.72 | N 2.15 | V 1.29 | A 1.66 | K 2.54 | L 2.39 | G 2.33 | Q 1.75 | T 1.67 | E 2.93

Variants of: B2
Test: as above
Conditions: c terminus: a fixed tail appended

Protein stability index of substitutions, site by site:
M5: A 2.63 | T 3.55 | Q 3.61 | S 4.27 | L 3.74
A4: G 2.92 | I 1.5 | T 3.43 | M 2.94 | N 2.2 | L 1.85 | W 1.72
L20: W 3.92 | T 2.31
V22: C 3.03 | R 4.03
V14: W 4 | N 2 | F 1.91 | D 3.41 | L 3.6
K1: A 3.09 | F 2.89 | S 5.65 | N 1.73 | R 3.37 | T 4.59
V8: S 3.28 | A 2.89 | H 3.18 | C 2.43 | P 3.28 | K 2.31 | T 3.11
A7: D 2.99 | R 3.98 | V 2.07 | L 3.14 | P 2.58 | Q 2.59 | T 3.23 | Y 3.49
F9: Q 3.43 | A 1.73 | S 2.3
C23: P 5.3 | I 3.12 | H 2.03 | K 3.89 | Q 2.32
Y18: D 2.21 | W 3.5
S2: T 3.26 | P 2.97 | Y 3.58 | N 2.09
E17: Q 3.61 | N 2.23 | T 3.21
A19: K 2.39 | M 2.47
V11: C 2.8 | D 3.09 | Q 3.03 | R 2.94 | A 2.8
V15: Q 2.06
L24: F 2.33 | T 5.26 | Y 1.98
A21: I 1.6 | M 3.82
A3: G 2.25 | W 1.96 | V 1.5 | T 2.06 | H 3.8
A13: I 3.04 | T 4.82 | L 2.81 | Q 5.23
A10: H 3.74 | P 3.61 | E 2.05
L6: D 2.74 | E 2.25 | K 2.46
S12: N 4.18 | R 2.11
H16: K 2.88
